Consider five substances from patent US20240076343A1.

pKd: −log10 of the molar value.

For test [1], the target named is recombinant His-tagged cynomolgus PD-1 (Acro Biosystems) (cynomolgus) (UniProt B0LAJ3). Nature of the test: SPR Carterra LSA.
The target in test [2] is recombinant His-tagged human PD-1 (Acro Biosystems) (human) (UniProt Q15116). In words: SPR Carterra LSA.
recombinant His-tagged human PD-1 (Acro Biosystems) (human), sequence (Q15116 25-167 limits assumed): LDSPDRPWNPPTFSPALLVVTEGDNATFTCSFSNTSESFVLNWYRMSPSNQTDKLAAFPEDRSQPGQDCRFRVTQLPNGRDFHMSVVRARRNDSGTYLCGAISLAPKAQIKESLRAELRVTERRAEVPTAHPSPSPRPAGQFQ

recombinant His-tagged cynomolgus PD-1 (Acro Biosystems) (cynomolgus), sequence (B0LAJ3 entry or part of it limits assumed): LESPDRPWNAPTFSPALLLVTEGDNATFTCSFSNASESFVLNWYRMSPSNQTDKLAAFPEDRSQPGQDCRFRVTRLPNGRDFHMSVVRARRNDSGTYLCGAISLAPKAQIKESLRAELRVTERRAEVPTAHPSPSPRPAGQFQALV

What is called pKd is the Kd on a negative log10 scale, so that one unit is a factor of ten. Broadly, the koff is the rate constant with which the complex falls apart. By kon is commonly meant the rate constant with which the complex forms. For Anti-PD-1 clone MIH4 mIgG1 (antibody), in test [1], the pKd was 6.05, the koff was 0.12 s⁻¹ and the kon worked out at 130000 M⁻¹ s⁻¹. In test [2], the pKd was 8.00, the koff was 0.0014 s⁻¹ and the kon was determined as 130000 M⁻¹ s⁻¹.

In the case of “Anti-hPD-1 clone EH12.2H7-mIgG1 (antibody)”, in test [1], the pKd is 7.07, the koff is 0.0073 s⁻¹ and the kon worked out at 86000 M⁻¹ s⁻¹. For the same substance, in test [2], the pKd was 7.72, the koff stood at 0.0022 s⁻¹ and the kon was determined as 110000 M⁻¹ s⁻¹.

As to Anti-hPD-1 clone J105-mIgG1 (antibody), in test [1], the negative-log Kd (pKd) is 5.89, the koff was 0.066 s⁻¹ and the kon was determined as 50000 M⁻¹ s⁻¹. In addition, in test [2], the pKd was 7.07, the koff came to 0.0053 s⁻¹ and the kon came out at 62000 M⁻¹ s⁻¹.

KEYTRUDA ® (pembrolizumab) (antibody): the pKd in test [1] was 9.24.

As to OPDIVO ® (nivolumab) (antibody), the pKd in test [1] is 8.19.
